Results as given in US20250339382A1, “CORRALLING AMPHIPATHIC PEPTIDE COLLOIDS” (KANSAS STATE UNIVERSITY RESEARCH FOUNDATION, priority 2022, published 2025).
No end group written: not given here. *: point of attachment. methylmercury = [CH3][Hg]*

What was measured:
[1] = Zeta potential analysis (Litesizer 500); assay type: physicochemical
Protocol: (§1) Encapsulation studies-Winterized Soybean oil (Archer Daniel Midlands, Chicago, IL) 50 μL was added to 2 mg of dry peptide and vortexed for 2 min. Deionized distilled-reverse osmosis (DDI-RO) water was added to a final volume of 1 mL. This mixture was sonicated (bath sonicator) for 15 min at 37° C. The generated CAPC are maintained at RT for at least 1 h prior to confocal microscopy. For the solvent/oil encapsulation study reagent grade-Benzene (Sigma-Aldrich, St. Louis, MO), Cyclohexane (Acros Organics, Geel, Belgium), n-Decane (grade 99+%, Sigma-Aldrich, St. Louis), Migloyl® 812N; capric triglyceride (Pharma Grade, IOI Oleo GmbH, Witten, Germany), and Mineral oil paraffin (USP, Thermo-Fisher Scientific, Waltham, MA) and Winterized Soy oil (Archer Daniel Midlands, Chicago, IL) were used. […] prepared using 50 μL of the solvent/oil along with 480 μL of DDI-RO water were sonicated for 15 min. CAPC, 2 mg, was subsequently added and sonicated for 10 min. These samples were measured 24 h thereafter for their size, Zeta potential and their circular dichroism (CD) spectra recorded. Particle size/Zeta potential-The samples were analyzed using a LitesizerTM 500 Particle Size Analyzer (Anton Paar GmbH, Graz, Austria) using an Omega Cuvette at 25° C. The size distribution of the particles was analyzed with the proprietary KalliopeTM v.2.16 software (Anton Paar GmbH, Graz, Austria) using the intensity-weighing model. For the Zeta potential analysis, the suspension used above was diluted to 5-fold in DDI-RO prior to analysis.

[2] = Particle size and polydispersity by dynamic light scattering (Litesizer 500); assay type: physicochemical; conditions: for Hydrodynamic Diameter / Polydispersity: colloids produced by the amphipathic sequence in soy oil
Protocol: as §1

[3] = colloids produced by the amphipathic sequence in soy oil

| Substance | Zeta Potential [1, 3] [mV] | Zeta Potential ([1]; peptide complexed with soy oil droplets) [mV] | Hydrodynamic Diameter [2] [nm] | Polydispersity [2] [%] | average (mean) diameter ([2]; peptide complexed with soy oil droplets, DLS intensity peak) [nm] |
| --- | --- | --- | --- | --- | --- |
| Ac-FLIVI-KKKKK-CO-NH2 (Ac-FLIVIKKKKK-NH2) [Ac-FLIVI-KKKKK-CONH2] | 38 | 44.8 | 560 | 20 | 465 |
| Ac-IVFLI-KKKKK-CONH2 (Ac-IVFLIKKKKK-NH2) | 25 |  | 594 | 25 |  |
| Ac-FLIVI-KKKKK-C-Me-Hg (Ac-FLIVIKKKKKC(methylmercury)) | 33 ± 4.0 |  | 578 ± 96.0 | 25 ± 5.8 |  |
| Ac-FLLLL-KKKKK-CONH2 (Ac-FLLLLKKKKK-NH2) | −0.6 |  | 666 | 200 |  |
| Ac-FLIVIGSII-KKKKK-CONH2 (Ac-FLIVIGSIIKKKKK-NH2) [Ac-FLIVIGSII-KKKKKCONH2] | 21 |  | 300 | 23 |  |
| 5(6)-Ac-FLIVI-KKKKK- C-CF (Ac-FLIVIKKKKKC; also: 5(6)-carboxyfluorescein label (C-CF), attachment not given here) | 25 ± 2.7 |  | 766 ± 225.0 | 21 ± 4.8 |  |
| Ac-FAAAA-KKKKK-CONH2 (Ac-FAAAAKKKKK-NH2) [oligo-alanine peptide] | 10.2 |  | 681 | 500 |  |
